From US5885831

Tests used:
[1] = target: LexA-TIM1 (Drosophila melanogaster); test: yeast two-hybrid, β-galactosidase activity of liquid cultures, LexA-TIM1, 28 C
[2] = target: LexA-TIM1 (Drosophila melanogaster); test: yeast two-hybrid, β-galactosidase activity of liquid cultures, LexA-TIM1, 22 C
[3] = target: LexA-TIM1 (Drosophila melanogaster); test: yeast two-hybrid, β-galactosidase activity of liquid cultures, LexA-TIM1, 35 C

For VP16-PER^L233-685 (from UniProt P07663), the fold change of the TIM interaction signal (β-galactosidase activity) against the wild type PER fragment [1] was 1.8 fold higher, the fold change of the TIM interaction signal (β-galactosidase activity) against the wild type PER fragment [2] was 3.4 fold higher and the fold change of the TIM interaction signal (β-galactosidase activity) against the wild type PER fragment [3] was 4.8 fold lower.
